This assay addresses T1, recombinant full-length SARS-CoV-2 nucleocapsid protein (Np) (SARS-CoV-2, UniProt P0DTC9 1-419).
T1 construct: also called N protein; recombinant Np
Kind of assay: pull-down. Particulars: both partners purified.

B1: HALO-tagged recombinant full-length human DDX3X (enzyme, UniProt O00571 1-662, looked up)
chain: MSHVAVENALGLDQQFAGLDLNSSDNQSGGSTASKGRYIPPHLRNREATKGFYDKDSSGWSSSKDKDAYSSFGSRSDSRGKSSFFSDRGSGSRGRFDDRGRSDYDGIGSRGDRSGFGKFERGGNSRWCDKSDEDDWSKPLPPSERLEQELFSGGNTGINFEKYDDIPVEATGNNCPPHIESFSDVEMGEIIMGNIELTRYTRPTPVQKHAIPIIKEKRDLMACAQTGSGKTAAFLLPILSQIYSDGPGEALRAMKENGRYGRRKQYPISLVLAPTRELAVQIYEEARKFSYRSRVRPCVVYGGADIGQQIRDLERGCHLLVATPGRLVDMMERGKIGLDFCKYLVLDEADRMLDMGFEPQIRRIVEQDTMPPKGVRHTMMFSATFPKEIQMLARDFLDEYIFLAVGRVGSTSENITQKVVWVEESDKRSFLLDLLNATGKDSLTLVFVETKKGADSLEDFLYHEGYACTSIHGDRSQRDREEALHQFRSGKSPILVATAVAARGLDISNVKHVINFDLPSDIEEYVHRIGRTGRVGNLGLATSFFNERNINITKDLLDLLVEAKQEVPSWLENMAYEHHYKGSSRGRSKSSRFSGGFGARDYRQSSGASSSSFSSSRASSSRSGGGGHGSSRGFGGGGYGGFYNSDGYGGNYNSQGVDWWGN
notes: TEV site between tag and DDX3X; The helicase and EMSA assays used another construct (pET30a(+)-DDX3X, purified from ShuffleT7 E. coli); also called HALO-DDX3X; Halo-tagged DDX3X; not shown: HaloTag, N-terminal, kept
For the molecule B1, the binding result is on record as “binds”.

Values taken from publication PMC10058294, “Interaction of SARS-CoV-2 Nucleocapsid Protein and Human RNA Helicases DDX1 and DDX3X Modulates Their Activities on Double-Stranded RNA” (International Journal of Molecular Sciences, 2023).
